In publication PMC7786333, “Integration of diverse DNA substrates by a casposase can be targeted to R-loops in vitro by its fusion to Cas9”:

Molecular target: Casp-Cas9 (Aciduliprofundum boonei T469 / …, UniProt B5IAF4 1-404+=GGSGGSGGSGGSGGSGGSGGSGGS+Q99ZW2:1-1368, internal_change)
Experiment: R-loop formation gel assay (deproteinised); sgran50; 5 mM EDTA; 25 mM Tris pH 7.5, 106 mM KCl, 50 ug/ml BSA, 5 mM EDTA, 2 mM DTT, 9% glycerol, 37 C; 150 nM protein, 300 nM sgRNA, 25 nM Cy5-dsran50, 75 nM unlabelled MW12 dsDNA competitor; 8% acrylamide TBE gel
Settings: protein: recombinant, tags: His6, label: 5'-Cy5 on ssran50 strand (strand 2), blunt 50 bp DNA target plus sgRNA, PAM TGG

B1: sgran50 + dsran50 (mixed)
RNA: GGUAGACGAUUACAUUGCUACAGUUUUAGAGCUAGAAAUAGCAAGUUAAAAUAAGGCUAGUCCGUUAUCAACUUGAAAAAGUGGCACCGAGUCGGUGCUU
DNA 1: CAACGTCATAGACGATTACATTGCTACATGGAGCTGTCTAGAGGATCCGA
DNA 2: TCGGATCCTCTAGACAGCTCCATGTAGCAATGTAATCGTCTATGACGTTG
  binding result: binds
